The results in this text go back to US20230272415.

What all share (experiment): cell_activity
Data set [1] relates to ZFN 59581 (synthetic construct). The conditions noted are these: pair with 59580; 6 ug mRNA, activated T cells; 83 at 2 ug, 72 at 0.5 ug.
Data set [2] has as its system ZFN 59440 (synthetic construct). The conditions noted are these: pair with 59441; 6 ug mRNA, activated T cells; 82 at 2 ug, 59 at 0.5 ug.
The test system of data set [3] is ZFN 59580 (synthetic construct). Particulars: pair with 59581; 6 ug mRNA, activated T cells; 83 at 2 ug, 72 at 0.5 ug.
In data set [4] the test system is ZFN 59489 (synthetic construct). The conditions noted are these: pair with 59488; 6 ug mRNA, activated T cells; 84 at 2 ug, 60 at 0.5 ug.
Data set [5] concerns ZFN 59557 (synthetic construct). Particulars: pair with 59558; 6 ug mRNA, activated T cells; 80 at 2 ug, 55 at 0.5 ug.
The subject of data set [6] is ZFN 59558 (synthetic construct). Particulars: pair with 59557; 6 ug mRNA, activated T cells; 80 at 2 ug, 55 at 0.5 ug.
Data set [7] relates to ZFN 59488 (synthetic construct). The conditions noted are these: pair with 59489; 6 ug mRNA, activated T cells; 84 at 2 ug, 60 at 0.5 ug.
Data set [8] deals with ZFN 59441 (synthetic construct). The conditions noted are these: pair with 59440; 6 ug mRNA, activated T cells; 82 at 2 ug, 59 at 0.5 ug.

For the sequence “ATAGTGCTGCACAAGGCTGACCACATCC (double strand) [CISH exon 3 target of 59581]”, the activity in data set [1] stood at 82 % cleavage.
In data set [2], “CCAGCAAAGGACGAGGTCTAGAAGGCAG (double strand) [CISH exon 2 target of 59440]” came in with an activity of 84 % cleavage.
For “CCGGAAAGGCCAGGATGCGTGGCCTGGA (double strand) [CISH exon 3 target of 59580]”, the activity in data set [3] came to 82 % cleavage.
Consider “GAGGAGGTGGCAGAGGGTACCCCAGCCC (double strand) [CISH exon 2 target of 59489]”, for which, in data set [4], the activity came to 89 % cleavage.
As for “GAGTCCAGACGGAAGCTGGAGTCGGCAT (double strand) [CISH exon 3 target of 59557]”, the activity in data set [5] worked out at 84 % cleavage.
With “GATGCGTGGCCTGGACAAGCAGTTGGAG (double strand) [CISH exon 3 target of 59558]”, the activity in data set [6] worked out at 84 % cleavage.
On to “GGAAGGCCCCAGCAGGCAAGGGCTGCAT (double strand) [CISH exon 2 target of 59488]”, for which, in data set [7], the activity amounted to 89 % cleavage.
Turning to “GTGGAGCGGACTGGGCAGCGGCCCCTGT (double strand) [CISH exon 2 target of 59441]”, the activity in data set [8] turned out to be 84 % cleavage.
